Patent publication US20200347103A1

Target: purified folded MHC-complex (Example 34)
Assay: sandwich ELISA: W6/32 coated, detection with HRP-conjugated rabbit anti-β2m

“W6/32 mouse-anti-HLA-ABC antibody (Dako M0736)” was tested. Which OD450 of wells with MHC complex relative to wells with the negative control β2m did it give?
The OD450 of wells with MHC complex relative to wells with the negative control β2m was 6 fold.
